Measured values reported in paper PMC10578488 (RNA, 2023).

B2: Lsm10-MBP/Lsm11 heterodimer (wild-type, full-length Lsm11) (complex, human)
chain 1: MAVSHSVKERTISENSLIILLQGLQGRVTTVDLRDESVAHGRIDNVDAFMNIRLAKVTYTDRWGHQVKLDDLFVTGRNVRYVHIPDDVNITSTIEQQLQIIHRVRNFGGKGQGRWEFPPKNCK
chain 2: MEERERGARSAGAGSPARPPSPRLDVSSDSFDPLLALYAPRLPPIPYPNAPCFNNVAEYESFLRTGVRGGGRGRGRARGAAAGSGVPAAPGPSGRTRRRPDAPAPDPERIQRLRRLMVAKEEGDGAAGAGRRGPGRSRKAPRNVLTRMPLHEGSPLGELHRCIREGVKVNVHIRTFKGLRGVCTGFLVAFDKFWNMALTDVDETYRKPVLGKAYERDSSLTLTRLFDRLKLQDSSKKEADSKSAVEDSTLSRYSQTSTWKLASVWGRADTGRGSHKRSRSVPSSLQASAREESRSELSGRTTRTDGSSVGGTFSRATTLSRGQSRKKKRKPKVDYQQVFTRHINQIFIRGENVLLVHLAQ
notes: Lsm10, human, full length; Lsm11, human, full length, 360 amino acids; The results call the fusion Lsm10-MBP, the methods say MBP was added to the amino terminus of Lsm10; also called Lsm10/11; 10/11; source: baculovirus-expressed, recombinant; not shown: MBP, N-terminal, kept

How the values were obtained:
Details in all cases: both partners purified
[1] = target: T1, recombinant PRMT5/MEP50 complex (human, UniProt O14744 1-637; Q9BQA1 1-342); experiment: cryo-EM structure; PRMT5/MEP50, Lsm10/11 and pICln mixed 1:1:1.2, complex purified on Superose 6 (25 mM Tris pH 7.5, 150 mM NaCl, 2 mM DTT); map at 2.86 Å, C1 symmetry
T1 construct: PRMT5, human, full length; MEP50, human, full length; also called PRMT5/MEP50 heterooctamer; PRMT5/MEP50 heterodimer; source: High5 insect cells (baculovirus), coexpressed, purified (nickel beads, Superdex 200); copies: 4 + 4
T1 sequence (O14744 whole entry, chain 1 of 2): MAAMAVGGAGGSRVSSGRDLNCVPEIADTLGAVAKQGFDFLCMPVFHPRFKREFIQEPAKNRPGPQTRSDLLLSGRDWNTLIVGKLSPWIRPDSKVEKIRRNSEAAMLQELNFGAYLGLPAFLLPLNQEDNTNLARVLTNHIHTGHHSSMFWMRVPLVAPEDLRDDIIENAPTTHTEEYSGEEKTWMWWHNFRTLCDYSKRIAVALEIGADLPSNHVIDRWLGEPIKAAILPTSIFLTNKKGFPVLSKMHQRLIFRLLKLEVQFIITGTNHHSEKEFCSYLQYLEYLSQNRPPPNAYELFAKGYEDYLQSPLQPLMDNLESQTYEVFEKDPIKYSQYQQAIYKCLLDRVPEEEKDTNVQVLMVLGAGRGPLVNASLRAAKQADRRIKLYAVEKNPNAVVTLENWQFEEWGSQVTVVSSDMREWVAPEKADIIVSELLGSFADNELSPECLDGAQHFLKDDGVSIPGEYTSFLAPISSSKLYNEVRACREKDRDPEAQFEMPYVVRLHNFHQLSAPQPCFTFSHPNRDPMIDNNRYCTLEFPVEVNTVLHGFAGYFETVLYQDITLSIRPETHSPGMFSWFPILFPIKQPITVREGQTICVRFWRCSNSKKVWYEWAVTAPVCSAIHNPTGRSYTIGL
T1 sequence (Q9BQA1 whole entry, chain 2 of 2): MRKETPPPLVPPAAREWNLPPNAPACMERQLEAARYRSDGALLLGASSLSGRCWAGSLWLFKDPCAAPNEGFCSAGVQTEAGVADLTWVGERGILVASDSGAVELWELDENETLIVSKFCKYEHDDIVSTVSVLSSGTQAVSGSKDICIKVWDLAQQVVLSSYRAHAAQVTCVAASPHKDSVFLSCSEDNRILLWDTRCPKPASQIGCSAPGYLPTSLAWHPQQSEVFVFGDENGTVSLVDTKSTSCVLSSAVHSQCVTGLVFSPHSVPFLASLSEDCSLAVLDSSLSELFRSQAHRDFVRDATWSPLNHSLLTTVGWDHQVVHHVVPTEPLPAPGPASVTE

[2] = target: T2, recombinant human PRMT5 (chain of the PRMT5/MEP50 complex) (human, UniProt O14744 1-637); experiment: as above
T2 construct: PRMT5, human, full length; The PRMT5 chain of m17, written alone for the pairs seen in the cryo-EM structures; source: High5 insect cells (baculovirus), coexpressed with MEP50, purified (nickel beads, Superdex 200)
T2 sequence (O14744 whole entry, one chain of several): as the sequence (O14744 whole entry, chain 1 of 2) above

[3] = target: B2; experiment: pull-down; recombinant PRMT5/MEP50 mixed with MBP-Lsm10/11 heterodimer (molar ratio 1:1) in the presence of recombinant pICln, collected on amylose beads via MBP on Lsm10; silver staining
[4] = target: T1, recombinant PRMT5/MEP50 complex; experiment: pull-down; recombinant PRMT5/MEP50 mixed with MBP-Lsm10/11 heterodimer (molar ratio 1:1) without pICln, collected on amylose beads via MBP on Lsm10; silver staining

B1: recombinant mouse pICln (natural protein, UniProt Q61189 1-236, looked up)
chain: MSFLKSFPPPGSADGLRLQQPDTEAVLNGKGLGTGTLYIAESRLSWLDGSGLGFSLEYPTISLHAVSRDPNAYPQEHLYVMVNAKLGEESKEPPSDEDEEDNDDIEPISEFRFVPSDKSALEAMFTAMCECQALHPDPEDEDSDDYDGEEYDVEAHEQGQGDIPTFYTYEEGLSHLTAEGQATLERLEGMLSQSVSSQYNMAGVRTEDSVRNYEDGMEVETTPTVAGQFEDADVDH
notes: pICln, mouse, full length; source: E. coli Rosetta, purified (nickel beads, MonoQ)
binding result [1]: binds
binding result [2]: binds
binding result [3]: binds

B2
binding result [4]: binds

B3: Lsm10/11ΔL heterodimer (MBP-Lsm10 with Lsm11 lacking the internal loop, amino acids 211-322) (complex, human)
chain 1: MAVSHSVKERTISENSLIILLQGLQGRVTTVDLRDESVAHGRIDNVDAFMNIRLAKVTYTDRWGHQVKLDDLFVTGRNVRYVHIPDDVNITSTIEQQLQIIHRVRNFGGKGQGRWEFPPKNCK
chain 2: MEERERGARSAGAGSPARPPSPRLDVSSDSFDPLLALYAPRLPPIPYPNAPCFNNVAEYESFLRTGVRGGGRGRGRARGAAAGSGVPAAPGPSGRTRRRPDAPAPDPERIQRLRRLMVAKEEGDGAAGAGRRGPGRSRKAPRNVLTRMPLHEGSPLGELHRCIREGVKVNVHIRTFKGLRGVCTGFLVAFDKFWNMALTDVDETYRKPVLQSRKKKRKPKVDYQQVFTRHINQIFIRGENVLLVHLAQ
notes: Lsm10, human, full length; Lsm11, human, lacking residues 211-322 (internal loop); Purified on nickel beads; also called Lsm10/11ΔL dimer; Lsm11ΔL; source: High5 insect cells (baculovirus), purified (nickel beads, HiTrap Heparin); not shown: MBP, N-terminal, kept
binding result [1]: binds

B4: Lsm11 lacking residues 211-322 (chain of the Lsm10/11 heterodimer) (natural protein, human, UniProt P83369 1-360, looked up)
chain: MEERERGARSAGAGSPARPPSPRLDVSSDSFDPLLALYAPRLPPIPYPNAPCFNNVAEYESFLRTGVRGGGRGRGRARGAAAGSGVPAAPGPSGRTRRRPDAPAPDPERIQRLRRLMVAKEEGDGAAGAGRRGPGRSRKAPRNVLTRMPLHEGSPLGELHRCIREGVKVNVHIRTFKGLRGVCTGFLVAFDKFWNMALTDVDETYRKPVLQSRKKKRKPKVDYQQVFTRHINQIFIRGENVLLVHLAQ
notes: Lsm11, human, lacking residues 211-322 (internal loop); The Lsm11 chain of m2, written alone for the pairs Lsm11-PRMT5 and Lsm11-Lsm10; also called Lsm11ΔL; source: High5 insect cells (baculovirus), coexpressed with MBP-Lsm10, purified (nickel beads, HiTrap Heparin)
binding result [2]: binds
